One experiment deals with human CD18 (human) (UniProt P05107). As to the kind of experiment: cell-based or functional assay.
The next experiment deals with rhesus CD18 (rhesus) (UniProt H9Z8N5). Nature of the experiment: cell-based or functional assay.

Sequence of human CD18 (human) (P05107 23-769): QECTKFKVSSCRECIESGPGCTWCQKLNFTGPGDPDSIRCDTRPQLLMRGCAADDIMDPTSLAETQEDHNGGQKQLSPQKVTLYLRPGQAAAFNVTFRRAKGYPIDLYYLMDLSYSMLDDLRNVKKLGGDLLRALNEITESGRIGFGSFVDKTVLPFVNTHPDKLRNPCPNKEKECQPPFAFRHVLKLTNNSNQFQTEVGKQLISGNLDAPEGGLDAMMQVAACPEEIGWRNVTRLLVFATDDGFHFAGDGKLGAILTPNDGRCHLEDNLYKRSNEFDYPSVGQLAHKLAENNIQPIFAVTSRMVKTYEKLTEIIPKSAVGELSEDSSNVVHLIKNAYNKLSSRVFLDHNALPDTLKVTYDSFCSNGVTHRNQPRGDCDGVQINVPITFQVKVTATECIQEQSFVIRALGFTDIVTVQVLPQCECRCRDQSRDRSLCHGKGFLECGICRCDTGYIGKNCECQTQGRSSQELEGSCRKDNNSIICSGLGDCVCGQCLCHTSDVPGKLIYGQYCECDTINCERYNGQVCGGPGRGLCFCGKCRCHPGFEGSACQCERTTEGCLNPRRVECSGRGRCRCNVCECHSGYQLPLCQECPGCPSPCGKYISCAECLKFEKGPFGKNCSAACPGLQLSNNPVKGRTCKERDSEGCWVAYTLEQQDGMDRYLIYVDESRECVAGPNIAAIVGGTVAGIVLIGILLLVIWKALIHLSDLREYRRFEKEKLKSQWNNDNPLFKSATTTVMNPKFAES

murine anti-human CD18 antibody MHM23 displayed an IC50 Value (nM), Rh/HuCD11a:HuK cell adhesion with human CD18 (human) of 1.4 nM. In the experiment with rhesus CD18 (rhesus), this substance displayed an IC50 Value (nM), RhLy:HuICAM cell adhesion of 1.2 nM; an IC50 Value (nM), RhLy:HuK cell adhesion of 1.6 nM; an IC50 Value (nM), rhesus mixed lymphocyte response of 30.4 nM.

The values are drawn from patent publication US20100136005A1.
